Assay: soluble on expression in E. coli; label from the status in PepcDB or PDB records

| Sequence | soluble on expression in E. coli |
| --- | --- |
| MSLSDVKVIIMDIDGTLTTSKKIISEKTKKALKKAQELGAVLILASGRPTSGLMDFAKELEMDKNHGLLVSFNGARVVDCETNKILFNETMSIDQGQAVLEHMKKFEVKPMIDKGDYMYVNDVFDNEIQYKGEPFNIIQYESRNNKFKLCEKHDLAAFADYPLNKILTAGEPEYLKKHYKEMMEPFKESLNCMFTADFYFEFTAEGIDKAKALDTVLIPMGYKKEEMIAFGDGHNDISMVKYAGIGVAMDNAVQELKNAADEVTLSNEEDGIAYTLSKYMKGLEGHHHHHH | soluble |
| GPGSMLASTPGSNFGGAVASSNNNGGQQPQRRMHPIRPLTIKQMLEAQSVGGGVLVVDGREVTQATVVGRVVGYENANMASGGGAITAKHFGYRITDNTGMLVVRQWIDADRMQEPLAINTHVRASGTVNVWQQTPIVTGTVVSMADSNEMNYHMLDAILTHFRLTQGNKRAPSSGVSIQNTASAVGMHNMLPGGDNKVLLTDLLVSFIKQHGSSGAGMSMDELTTSAQRYGFTHGDVRTAMRTLAAEGKVYQTHDNRFNI | soluble |
| MLEHGGRLREAARRYDIPLADWLDLSTGIAPWPFSLPAIPEQAWTRLPESDDGLEAAACLYYGAERVLPLAGSQAAIQALPRMRRGGRVGVLSPCYAEHAHAWRQAGHLVREIGEAEVEPYLDSLDVLLVVNPNNPTGRVFEPAELLAWHARLQRRGGWLLVDEAFMDCTPQSSLAACSNRPGLIVLRSFGKFFGLAGARLGFALGERPLLQALAEQLGPWTVNGPVRHVAQSALRDRQQQRQQRERLLAASQRLEELLRRHGWPPAGGSALFQRLVDPRCAALHDYLARRGILTRQFEQPASLRLGLPADEAAWARLDAALLGFKEPAHE | not soluble |
| MCLDKMTDIRVRGYKSISFWQEEGIGLIVIRSDSHGRFDLNTLGEITAAIGIAAMDGSVRAVALTGMNNIFGRQLVIGQLSNNTVYNVMQSSSSLISMIYTFEKPIFSILNGDAIDEGYEIALLADRIISADDIKVGFSRDYEFKIGGSFTSLRMTKTDISGPAEGINVDRVVKHESLLEDAKNIIKETADINFPMRRRQRYRYISELINAEKINFYEHYLARS | not soluble |
| MGSVNGAEALKALYALQEKDLEIDRLRAEAESPPEELVALQGQVEALEERLTNLLERRAELEREYNRHSLDIEDLSAKEKQAEEEQKRAQSAREQTQYENRIQQIKDRIRELLELSTPIMEAMENLEAEIAQVEEELAALRPRLQELLEANRARVAELEAAIAAKVEERTTMAAAIPAQILKEYEAIRRARRGTGVARMAAQGQVYRCEGCNVVLPTHVAQKVVRGQVVRCPSCGRLLWKGE | soluble |
| MNLNTPVEIPSGFTPISHAQQLLIMGSCFAENIGTLLAENKFRIDINPFGILYNPRSISMALREIISQKQYKASDLFLHRECWHSPMHHGSFSAATLADTLRNIQSRVEQAHKELKQLDRLMLTFGTAYVYEQKETGKVVANCHKLPEKNFIRRRLEIDEIVEDYTLLLDELISLNPQLKILFTVSPIRHIRDGMHANQLSKSVLLLAIDRLMQRYPQVTCYFPSYEIVLDELRDYRFYADDMVHPSTLTVNYLWERFSETFFTPETQSLIKECET | soluble |
| MKRLTIEMLPTLIGNEKLLVDCLFILFCTLKTKSLPPIRVLVRTNQSNLILDTLYEKLSKAVDKKLIFVASPEKPFDVIITDIFSEVSVKSTVPTYYVDFSASIGELAQSLENLNTQIVTKQSPRHF | not soluble |
| MALRWGIVSVGLISSDFTAVLQTLPRSEHQVVAVAARDLSRAKEFAQKHDIPKAYGSYEELAKDPNVEVAYVGTQHPQHKAAVMLCLAAGKAVLCEKPMGVNAAEVREMVTEARSRGLFLMEAIWTRFFPASEALRSVLAQGTLGDLRVARAEFGKNLTHVPRAVDWAQAGGALLDLGIYCVQFISMVFGGQKPEKISVMGRRHETGVDDTVTVLLQYPGEVHGSFTCSITAQLSNTASVSGTKGMAQLLNPCWCPTELVVKGEHKEFLLPPVPKNCNFDNGAGMSYEAKHVRECLRKGLKESPVIPLVESELLADILEEVRRAIGVTFPQDKH | soluble |
| MYFIAGMFDGKEKVNREQPPMPTTDGVEYPRAASWAAGNCANVLNDDKGKQLFRVFLFQSLAEENLAFLEAMEKLKKMKISDEKVAYAKEILETYQGSINLSSSSMKSLRNAVASETLDMEEFAPAIKEVRRLLENDQFPRFRRSELYLEYLEELLPRSYAEKWAQSFEGLLGNHVGRHHFRIFLRSIHAEENLRFWEAVVEFRSSRHKANAMNNLGKVILSTYLAEGTTNEVFLPFGVRQVIERRIQDNQIDITLFDEAIKHVEQVLRNDPYVRFLQSSQYIDLLSKLK | not soluble |
| MRGSHHHHHHGSELSKSSIVDKVELDHTTLYQGEMTSIKVSFSDKENQKIKPGDTITLTLPDALVGMTENDSSPRKINLNGLGEVFIYKDHVVATFNEKVESLHNVNGHFSFGIKTLITNSSQPNVIETDFGTATATQRLTIEGVTNTETGQIERDYPFFYKVGDLAGESNQVRWFLNVNLNKSDVTEDISIADRQGSGQQLNKESFTFDIVNDKETKYISLAEFEQQGYGKIDFVTDNDFNLRFYRDKARFTSFIVRYTSTITEAGQHQATFENSYDINYQLNNQDATNEKNTSQVKNVFVEGEASGNQNVEMPTEESLDIPLETIDEWEPKTPTSEQATETSEKTD | soluble |
| MNAGKEFNYYTYQSDSSQGSLQKAPDENTDYFTHKMNSYLPFDMSTLYANQPTEKIQILQEIYDTERTYVKALTIVDEIFIQQLNLWCPKSKKCFRSMFGEISAICKTHQILLESLQCKPIAEVFTKFVPFLKLYTSYASHYPNSLKIFAKLMSRNDFRKALTKIEEDPRVDGKKLQTYLIMPIQRIPRYIMLIQNLMNYSTEKDDMTNLYKALSGMQGLSDQIQSCMTAYENGERLLQIQLNFGLDGHILEPGRVLLKEGMLYKRELNGSANYQETVVFLFNDILLYGIKRISVMPLCKYEPSAILSLRHCIVQLDDIGGSIFIRCGDVGVDFTAYSLGGVTEWYNEICDAIDNAKKLRDTLRKESFKQKSLIFDKGFWQRNRDKLRNMITADMTGNISRVLTRKKPAPKLEESDFLRGQWTTSTIASNQRKRKVATLEDEEEDVFNMLSSPNLSQRKRKATLQENTPSGVGWTASPRSSSFRKRRASTLRNKNADVTDGNNYLSHLVLNDVTMTQPYTGLNAFVGTPKSRTPTDDDYDSDRDYVWTDDEEFVSDDKKIPIRRVASYDEEDRRPRDFSEVRRSVASEPPRRHLAVDDIRKLSYQQRSLEPFNMVTEDDDEDDIIDIKVKGERPRPWWETESAPPAIKNQKSSIIDSIRNSCAIM | not soluble |
| MKDKIIDNAITLFSEKGYDGTTLDDIAKSVNIKKASLYYHFDSKKSIYEQSVKCCFDYLNNIIMMNQNKSNYSIDALYQFLFEFIFDIEERYIRMYVQLSNTPEEFSGNIYGQIQDLNQSLSKEIAKFYDESKIKMTKEDFQNLILLFLESWYLKASFSQKFGAVEESKSQFKDEVYSLLNIFLKK | not soluble |
| MGSDKIHHHHHHKDPVINDLKDSEGNNISFTLNAPNNSSYTLMPENASSIIDIFTCEQPDYGFAAGVTYTVQVCEGGTEFEKFESLPTTGSGEKVLIKTFELNDAMNNLGMVNPTVAYNVDFRLKAFINDSVPELYSNTVNMAITPYSGARTQVYFVGDIFDNGWNNNDPSMRIFADDDVNNMLFTYTGFVKAGSAFKIIQTPGDWGIQWGYDSDGALSNDGGSGNIEGFTQDGYYTITLDLAGNKYSIEPYTGATTEYKQISLIGDFNDWGGDLDLQQASYDKHIWIGEKIEIPSDGGLKLRADHDWAVSFGGSNSLWNDKQGQFAKFDGGDNVKVSAGTYFIKFNDLTKHIILLAE | not soluble |
| MAPVKLYMVEVIDKKEIAANERRSRENDVTGPEITHYYQVTFRLTTDDRKDLVLNIDKSSYQNIEPEMKGRLFMQGSRFVQFETDVPIDEQKLEHHHHHH | soluble |
| KRGTDLGRPINATFDFFSRLFSKRKNVHMTFFNSSTPLDVNYTPNQQEIDTILDKISRSGYESLTKEEKQKLFKASQK | not soluble |
| MSLQYIVVTGGVISGLGKGTITSSIGHILKDSGFKVSSVKIDPYINYDAGTMNPYQHGEVFVLDDGSEVDLDLGNYERFMDINLSWKNNITTGKVYLEVIEKERHGDYLGKTVQIIPHITDEIKRRIRDVATSSKADFVLIEVGGTVGDIESMPFLEAVRQLKREENNVIFAHVTLVPEIGPTEEQKTKPTQHSVTALREIGIQPDIIFARSKNRLLEETKKRISLFTDVPEGGIISVYDVENVYLLPEVMVNEGFISYLSKLSGKEIKYRDSWKAYTENIKHPKDRVKIAIVGKYVDLHDAYISHKEAFSHVTGNTGIAVDIKWLDSEKVKDDQSMLSDVDAILIPGGFGYRGVEGKIAATRFALENHIPFLGICLGFQVAVIEIARDIIGLQNANSTEFDPATKYPVIDILPEQKGIKDLGGTMRLGSKKVLIKDGTLAKRIYGTDTIYERHRHRYEVNPNYISIIEKAGFVFSGTDEDGIRMEILEKKGDESFIATQYHSEFKSRPLNPSRVHLHLVQQALIYKKNKDIGEAVKLRSSVEGHHHHHH | soluble |
| MAEIDYKKVTGMIHSTESFGSVDGPGIRFIIFMQGCKMRCQYCHNPDTWEMETNNSKERTVEDVLKEALRYKHFWGKDGGITVSGGEAMLQIDFITALFIEAKKLGIHTTLDTCGFAYRATPEYHAILEKLLDVTDLVLLDLKEIDSEQHKIVTRQSNKNILQFARYLSDRGTPVWIRHVLVPGLTD | not soluble |
| MGSDKIHHHHHHMNIAIIGSGLTGSLAAISLAKAGCRVDLYERLSDEELVNRDRTYAITHSSRKILEKLGIWSNLSRDLVPFQFLNVIDYELNKKFVFLTNDLPIPDQKYSAVGWIAEHKFIMLSILSVISNLENINKIPTSVIPNTNNYDLIVAADGSSSNTKKKLNTPSFHFKYDQMCITAKVLLRGVKSNEAFEILNSEGPFAVLPLGGDLFQVICSQSILKGTYNMNLSKSLFLDYLSTILPYGIEPDTIIDSPESFPIDFCLNYLFFSGKYIYLGETAHKIHPVGGQGLNLCWRDVDCLSKLLSIPLLKNNHSLIPLIYSISRSFDVLSISILTDSLVRYSRSNISIFYLPRLLVFFILKKSSLFRKYILNLMTNGF | not soluble |
| MGHHHHHHSHMREPWLFGEEHTRLIREAIRERYGLLPYWYSLFYHAHVASQPVMRPLWVEFPDELKTFDMEDEYMLGSALLVHPVTEPKATTVDVFLPGSNEVWYDYKTFAHWEGGCTVKIPVALDTIPVFQRGGSVIPIKTTV | soluble |
| MKHTIGILGGMGPAATADMLEKFVELRHASCDQQHIPLIVSSIPDIPDRTACLLSGGPSPYRYLERYLHMLEDAGAECIVIPCNTAHYWFDDLQNVAKARMISILDATLGDIPPSARHVGLLATNATLATGLYQKKALARGLTLIQPEDAGQALVMQAIYTLKRGDKTAAQALLLPQIDSLIARGAQAIIMGCTEIPLIVAGHERAIACPMIDSTASLVRAAIRWYESWPDTRASLTGEQRLTA | not soluble |
| MTVPIAIIGTGIAGLSAAQALTAAGHQVHLFDKSRGSGGRMSSKRSDAGALDMGAQYFTARDRRFATAVKQWQAQGHVAEWTPLLYNFHAGRLSPSPDEQVRWVGKPGMSAITRAMRGDMPVSFSCRITEVFRGEEHWNLLDAEGQNHGPFSHVIIATPAPQASTLLAAAPKLASVVAGVKMDPTWAVALAFETPLQTPMQGCFVQDSPLDWLARNRSKPERDDTLDTWILHATSQWSRQNLDASREQVIEHLHGAFAELIDCTMPAPVFSLAHRWLYARPAGAHEWGALSDADLGIYVCGDWCLSGRVEGAWLSGQEAARRLLEHLQLEHHHHHH | soluble |
